Consider 19 molecules from patent publication US20250361298A1 (CARTOGRAPHY BIOSCIENCES, published 2025).

Starred links: 1 amine or outer side, 2 acyl side, 3 side chain; linkers in the order of their positions; H or OH if unused. Positions of bridges follow the written chain, without caps; N, C: chain ends. Primed or numbered codes have the meaning given here. PEG2′ = PEG2 spacer at the C-terminus, followed by 3-mercaptopropionate; CH2 = C([*:1])[*:2]

Assay [1] has as its target T1, LY6G6D cyclic peptide Ac-RDC*YLGDLC*NS-PEG2-3-mercaptopropionate (bridge 3-9 via CH2; not fully specified; printed as Ac-RDC*YLGDLC*NS-PEG2-3-mercaptopropionate).
T1 construct: Represents the most membrane-proximal stretch of LY6G6D; also called octomer cyclic peptide
T1 peptide: Ac-RDCYLGDLCNS-{PEG2′-3‑mercaptopropionate}
Put plainly: flow binding assay on cyclic-peptide beads.

The target of assay [2] is T2, Human LY6G6D ectodomain fused to mouse IgG2A Fc (monovalent display, knob-in-hole) (human, biotinylated for BLI capture (site not stated)).
T2 chain: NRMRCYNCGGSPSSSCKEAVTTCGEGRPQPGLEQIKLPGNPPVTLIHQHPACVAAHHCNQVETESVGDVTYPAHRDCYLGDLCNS
The experiment in a line: BLI, chain shuffle round 1; antigen not named in the table (LY6G6D ectodomain as in Example 3). In general terms: Biolayer interferometry detects binding as a change in optical thickness at a sensor tip.

B1: CB21-512 (antibody, V domains shown)
VH: EVQLVESGGGVVQPGRSLRLSCAASGFTFSSYGMHWVRQAPGKGLEWVAVLWYDGINKNYADSVKGRFAISRDNSKNTLYLQMNSLRVEDTAVYFCVRVQGDYWGQGTLVTVSS
VL: DIQMTQSPSSLSASVGDRVTITCRASQGIRNDLTWYQQKPGKAPKRLIYDTSSLQSGVPSRFSGSRSGTEFTLTISSLQPEDFASYFCLQHNIYPFTFGQGTKLEIK
notes: Human Fc formats; monovalent antibody in BLI
As for B1, the binding result in assay [1] is given as “binds”.

B2: CB21-502 (antibody, V domains shown)
VH: EVQLVESGGGVVQPGRSLRLSCAASGFTFSSYGMHWVRQAPGKGLEWVAVLWYDGINKNYVDSVKGRFAISRDNSKNTLYLQMNSLRVEDTAVYFCVRVQGDYWGQGTLVTVSS
VL: DIQMTQSPSSLSASVGDRVTITCRASQGIRNDLTWYQQKPGKAPKRLIYDTSSLQSGVPSRFSGSGSGTDFTLTISSLQPEDFASYFCLQHNIYPFTFGQGTKLEIK
notes: as for B1
For B2, in assay [1], the binding result is given as “binds”.

B3: CB21-470 (antibody, V domains shown)
VH: EVQLVESGGGVVQPGRSLRLSCAASGFTFNSYGMHWVRQAPGKGLEWVAVLWYDGINKNYADSVKGRFAISRDNSKNTLYLQMNSLRVEDTAVYYCVRVQGDYWGQGTLVTVSS
VL: DIQMTQSPSSLSASVGDRVTITCRASQGIRNDLTWYQQKPGKAPKRLIYDTSSLQSGVPSRFSGSRSGTEFTLTISSLQPEDFASYFCLQHNSYPFTFGQGTKLEIK
notes: as for B1
B3: the binding result in assay [1] is reported as “binds”.

B4: CB21-469 (antibody, V domains shown)
VH: EVQLVESGGGLVQPGGSLRLSCAASGFTFSSYAMNWVRQAPGKGLEWVSGISGNGGRIYYADSVKGRFTISRDNSKNTLYLQMNSLRVEDTAVYYCAKDLDVWGKGTTVTVSS
VL: DVVMTQTPLSSPVTLGQSASISCRSSQSLVHSDGNTYLNWLHQRPGQPPRLLIYKISNRFSGVPDRFSGSGAGTDFTLKISRVEAEDVGVYYCMQATQFPLTFGGGTKLEIK
notes: Cloned into knob/hole human Fc and light chain vectors; IgG and bispecific TCE formats were made; BLI used a monovalent antibody format
With B4, in assay [1], the binding result was “binds”.

B5: CP1474 (heavy chain from CB21-498, light chain from CB21-500) (antibody, V domains shown)
VH: EMQLVESGGGLVQPGGSLRLSCAASGFTFSSYAMNWVRQAPGKGLECVSGISGNGGRIYYAESVKGRFTISRDNSKSTFYLQMNSLRAEDTAVYYCAKDLDVWGKGTTVTVSS
VL: DVVMTQTPLSSPVTLGQPASISCRSSQNLVHSDGNTYLNWLQQRPGQPPRLLIYKISNRFSGVPDRFSGSGAGTDFTLKISRVEAEDVGVYYCMQATQFPLTFGGGTKLEIK
notes: Chain-shuffled antibody
A word on the Kd: it is the constant that tells how readily two partners part at equilibrium. A low value points to a tighter complex. As usually defined, the koff is the rate constant with which the complex falls apart. Read a high koff as fast dissociation. What is called kon is the rate constant with which the complex forms. Low readings indicate slow association, high ones fast association. In assay [2], B5 had a Kd of 0.699 nM, a koff of 9.87e-05 s⁻¹ and a kon of 141000 M⁻¹ s⁻¹.

B6: CP1475 (heavy chain from CB21-498, light chain from CB21-513) (antibody, V domains shown)
VH: EMQLVESGGGLVQPGGSLRLSCAASGFTFSSYAMNWVRQAPGKGLECVSGISGNGGRIYYAESVKGRFTISRDNSKSTFYLQMNSLRAEDTAVYYCAKDLDVWGKGTTVTVSS
VL: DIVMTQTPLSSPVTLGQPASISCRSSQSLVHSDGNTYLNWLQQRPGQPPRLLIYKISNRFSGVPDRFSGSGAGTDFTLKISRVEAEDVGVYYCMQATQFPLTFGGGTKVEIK
notes: Chain-shuffled antibody
In assay [2], B6 returned a Kd of 0.91 nM, a koff of 0.000105 s⁻¹ and a kon of 116000 M⁻¹ s⁻¹.

B7: CP1473 (heavy chain from CB21-498, light chain from CB21-469) (antibody, V domains shown)
VH: EMQLVESGGGLVQPGGSLRLSCAASGFTFSSYAMNWVRQAPGKGLECVSGISGNGGRIYYAESVKGRFTISRDNSKSTFYLQMNSLRAEDTAVYYCAKDLDVWGKGTTVTVSS
VL: DVVMTQTPLSSPVTLGQSASISCRSSQSLVHSDGNTYLNWLHQRPGQPPRLLIYKISNRFSGVPDRFSGSGAGTDFTLKISRVEAEDVGVYYCMQATQFPLTFGGGTKLEIK
notes: Chain-shuffled antibody
As for B7, in assay [2], the Kd turned out to be 0.554 nM, the koff worked out at 8.4e-05 s⁻¹ and the kon came to 152000 M⁻¹ s⁻¹.

B8: CP1471 (heavy chain from CB21-469, light chain from CB21-500) (antibody, V domains shown)
VH: EVQLVESGGGLVQPGGSLRLSCAASGFTFSSYAMNWVRQAPGKGLEWVSGISGNGGRIYYADSVKGRFTISRDNSKNTLYLQMNSLRVEDTAVYYCAKDLDVWGKGTTVTVSS
VL: DVVMTQTPLSSPVTLGQPASISCRSSQNLVHSDGNTYLNWLQQRPGQPPRLLIYKISNRFSGVPDRFSGSGAGTDFTLKISRVEAEDVGVYYCMQATQFPLTFGGGTKLEIK
notes: Chain-shuffled antibody
In assay [2], B8 displayed a Kd of 12.7 nM, a koff of 0.0017 s⁻¹ and a kon of 134000 M⁻¹ s⁻¹.

B9: CB21-513 (antibody, V domains shown)
VH: EVQLVDSGGGLVEPGGSLRLSCAASGFTFSSYAMTWVRQAPGKGLEWVSGISGSGGVTDYADSVKGRFTISRDNSKNTLYMQMNSLRAEDTAVYYCAKDLGVWGKGTTVTVSS
VL: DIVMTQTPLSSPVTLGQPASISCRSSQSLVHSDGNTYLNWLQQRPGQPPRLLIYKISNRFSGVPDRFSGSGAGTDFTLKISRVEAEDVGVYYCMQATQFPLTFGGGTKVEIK
notes: as for B1
Take B9: the binding result in assay [1] is given as “binds”.

B10: CP1476 (heavy chain from CB21-500, light chain from CB21-469) (antibody, V domains shown)
VH: EVQLVESGGGLVQPGGSLRLSCAASGFTFSSYAMNWVRQVPGKGLEGVSGMSGSGGRIYYADSVKGRFTMSRDNSKNMVYLQMNSLRAEDTALYYCAKDLDVWGKGTTVTVSS
VL: DVVMTQTPLSSPVTLGQSASISCRSSQSLVHSDGNTYLNWLHQRPGQPPRLLIYKISNRFSGVPDRFSGSGAGTDFTLKISRVEAEDVGVYYCMQATQFPLTFGGGTKLEIK
notes: Chain-shuffled antibody
In the case of B10, in assay [2], binding was characterised by a dissociation constant (Kd) of 3.15 nM, the koff was 0.000413 s⁻¹ and the kon stood at 131000 M⁻¹ s⁻¹.

B11: CP1479 (heavy chain from CB21-513, light chain from CB21-469) (antibody, V domains shown)
VH: EVQLVDSGGGLVEPGGSLRLSCAASGFTFSSYAMTWVRQAPGKGLEWVSGISGSGGVTDYADSVKGRFTISRDNSKNTLYMQMNSLRAEDTAVYYCAKDLGVWGKGTTVTVSS
VL: DVVMTQTPLSSPVTLGQSASISCRSSQSLVHSDGNTYLNWLHQRPGQPPRLLIYKISNRFSGVPDRFSGSGAGTDFTLKISRVEAEDVGVYYCMQATQFPLTFGGGTKLEIK
notes: Chain-shuffled antibody
In assay [2], B11 showed a Kd of 16.5 nM, a koff of 0.00053 s⁻¹ and a kon of 32200 M⁻¹ s⁻¹.

B12: CP1481 (heavy chain from CB21-513, light chain from CB21-500) (antibody, V domains shown)
VH: EVQLVDSGGGLVEPGGSLRLSCAASGFTFSSYAMTWVRQAPGKGLEWVSGISGSGGVTDYADSVKGRFTISRDNSKNTLYMQMNSLRAEDTAVYYCAKDLGVWGKGTTVTVSS
VL: DVVMTQTPLSSPVTLGQPASISCRSSQNLVHSDGNTYLNWLQQRPGQPPRLLIYKISNRFSGVPDRFSGSGAGTDFTLKISRVEAEDVGVYYCMQATQFPLTFGGGTKLEIK
notes: Chain-shuffled antibody
In assay [2], B12 gave a Kd of 17.6 nM, a koff of 0.000264 s⁻¹ and a kon of 15000 M⁻¹ s⁻¹.

B13: CP1478 (heavy chain from CB21-500, light chain from CB21-513) (antibody, V domains shown)
VH: EVQLVESGGGLVQPGGSLRLSCAASGFTFSSYAMNWVRQVPGKGLEGVSGMSGSGGRIYYADSVKGRFTMSRDNSKNMVYLQMNSLRAEDTALYYCAKDLDVWGKGTTVTVSS
VL: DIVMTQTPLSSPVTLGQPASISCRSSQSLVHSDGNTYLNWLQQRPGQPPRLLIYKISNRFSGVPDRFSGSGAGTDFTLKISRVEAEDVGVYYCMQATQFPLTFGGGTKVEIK
notes: Chain-shuffled antibody
As to B13, in assay [2], the Kd amounted to 5.35 nM, the koff is 0.000705 s⁻¹ and the kon was 132000 M⁻¹ s⁻¹.

B14: CB21-498 (antibody, V domains shown)
VH: EMQLVESGGGLVQPGGSLRLSCAASGFTFSSYAMNWVRQAPGKGLECVSGISGNGGRIYYAESVKGRFTISRDNSKSTFYLQMNSLRAEDTAVYYCAKDLDVWGKGTTVTVSS
VL: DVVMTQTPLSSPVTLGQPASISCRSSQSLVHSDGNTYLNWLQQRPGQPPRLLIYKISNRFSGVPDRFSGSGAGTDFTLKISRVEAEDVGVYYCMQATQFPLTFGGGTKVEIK
notes: as for B1
Take B14: the binding result in assay [1] is on record as “binds”.

B15: CB21-500 (antibody, V domains shown)
VH: EVQLVESGGGLVQPGGSLRLSCAASGFTFSSYAMNWVRQVPGKGLEGVSGMSGSGGRIYYADSVKGRFTMSRDNSKNMVYLQMNSLRAEDTALYYCAKDLDVWGKGTTVTVSS
VL: DVVMTQTPLSSPVTLGQPASISCRSSQNLVHSDGNTYLNWLQQRPGQPPRLLIYKISNRFSGVPDRFSGSGAGTDFTLKISRVEAEDVGVYYCMQATQFPLTFGGGTKLEIK
notes: as for B1
Consider B15, for which the binding result in assay [1] is “binds”.

B16: CB21-471 (antibody, V domains shown)
VH: EVQLVESGGGVVQPGRSLRLSCAASGFTFSSYGMHWVRQVPGKGLEWVAVIWYDGSNKDYVDSVKGRFTISRDNSKNTLYLQMNSLRAEDTAVYYCARPGEGDYWGQGTLVTVSS
VL: DIQMTQSPSSLSASVGDRVTITCRASQGIRNDFGWYQQKPGKAPKRLIYGASSLQSGVPSRFSGSGSGTEFTLTISSLQPEDFATYYCLQQNSYPWTFGQGTKVEIK
notes: as for B1
B16: the binding result in assay [1] is recorded as “binds”.

B17: CB21-499 (antibody, V domains shown)
VH: EVQLVESGGGVVQPGRSLRLSCAASGFTFSSYGMHWVRQAPGKGLEWVAVIWYDGSNKDYADSVKGRFTISRDNSKNTLYLQMNSLRAEDTAIYYCARPGEGDYWGQGTLVTVSS
VL: DIQMTQSPSSLSASVGDRVTITCRASQGVRNDFGWFQQKPGKAPKRLIYGASSLQSGVPSRFSGSGSGTEFTLTISSLQPEDFATYYCLQQNSYPWTFGQGTKLEIK
notes: as for B1
Turning to B17, the binding result in assay [1] is “binds”.

B18: CB21-477 (antibody, V domains shown)
VH: EVQLVESGGGVVQPGRSLRLSCAASGFTFSSYGMHWVRQAPGKGLEWVAVIWYDGSNKDYADSVKGRFTISRDNSKNTLYLQMNSLRAEDTAVYYCARPGEGDYWGQGTLVTVSS
VL: DIQMTQSPSSLSASVGDRVTITCRASQGIRNDLGWYQQKPGRAPKRLIYAASSLQSGVPSRFSGSGSGTEFTLTISSLQPEDFATYYCLQQNSYPWTFGQGTKVEIK
notes: as for B1
B18: the binding result in assay [1] is given as “binds”.

B19: CB21-522 (antibody, V domains shown)
VH: EVQLVQSGAEVKKPGASVKVSCKASGYTFTGYFIHWVRQAPGQGLEWMGWINPNSGGTYYAQEFQGRVTMTRDTSISTAYMELIRLRSDDSAVYYCARDISLVGDYWGQGTLVTVSS
VL: DVVMTQSPLSLPVTLGQPASISCRSSQSLVYSDGNTYLNWFQQRPGQSPRRLIYKVSNRDSGVPERFSGIGSGTDFTLEISRVEAEDVGVYYCMQGSHWPLTFGGGTKVEIK
notes: as for B1
As to B19, the binding result in assay [1] is “binds”.
